Data from patent US20240092920A1 (KEYMED BIOSCIENCES, published 2024).

T1: recombinant protein of human IL-4Rα extracellular region (human, UniProt P24394 26-232)
T1 construct: range 26-232; Made in HEK293-6E cells, purified on nickel chelate; Used biotin-labeled on SA probes in the Fortebio assays and unlabeled as ELISA coat; also called hIL-4Rα; IL-4Rα recombinant protein
T1 sequence: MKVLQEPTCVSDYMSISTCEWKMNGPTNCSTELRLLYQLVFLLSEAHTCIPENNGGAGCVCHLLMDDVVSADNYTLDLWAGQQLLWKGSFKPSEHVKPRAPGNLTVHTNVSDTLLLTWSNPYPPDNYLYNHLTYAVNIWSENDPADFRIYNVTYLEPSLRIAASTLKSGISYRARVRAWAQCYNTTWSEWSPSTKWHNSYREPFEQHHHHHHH


Each binder was assayed against T1, recombinant protein of human IL-4Rα … (assay: BLI (Fortebio), biotin-labeled hIL-4Rα on SA probe, antibody 50-3.125 ug/ml).
Method: PBS is added to any column of the 96-well plate, 100 ul/well, and the 96-well plate is placed in the probe holder cassette. When taking the probe, be careful to completely hang it on the holder to prevent the probe from touching the holder. The immobilized biotin-labeled hIL-4Rα is diluted to 5 ug/ml with PBS; a new 96-well plate is taken, and the diluted immobilized material is added column by column, 100 ul/well. […] A new 96-well plate is taken, and PBS is added to columns 1 and 2, 100 ul/well (the same buffer for both baseline and dissociation); the diluted immobilized material is added to column 3; the analyte diluted according to the series is added to column 4; 10 mM HCl (pH 1.9) is added to column 11; and PBS is added to column 12. The SA probe binds very strongly to the immobilized biotin material. When regenerated, the immobilized material is still bound to the probe, so it can be reused after immobilizing only once. Then the experimental method is set up in the Fortebio software, and then the experimental program is run for detection.

Row | Kd | koff | kon | Binder
1 | 5.9 nM | 0.000157 s⁻¹ | 26500 M⁻¹ s⁻¹ | Clone 25D6 (antibody, V domains shown, Chimeric IgG: mouse variable regions on human heavy and light chain constant regions (section 6)) VH: QVQLQQSGAELVKPGASVKMSCKASVNTFTGYNMHWVKQTPGQGLEWIGGLHPGNGDTSYNQKFKGKATLTADKSSNTAYMQLSSLTSEDSAVYYCALTTAGRAWFAYWGQGTLVTVSA VL: DIQMTQSTSSLSASLGDRVTISCRASQDISNYLNWYQQKPDGTVKLLIYYTSRLHSGVPSRFSGSGSGTDYSLTISNLEQEDIATYFCQQGNTLPWTFGGGTKLEIK
2 | 6.6 nM | 0.000176 s⁻¹ | 26900 M⁻¹ s⁻¹ | Clone 34H11 (antibody, V domains shown, Chimeric IgG: mouse variable regions on human heavy and light chain constant regions (section 6)) VH: QVQLQESGAELVKPGASVKMSCKASVNTFTGYNMHWVKQTPGQGLEWIGGLHPGNGDTSYNQKFKGKATLTADKSSNTAYMQLSSLTSEDSAVYYCALTTAGRAWFAYWGQGTLVTVSA VL: DIQMTQTTSSLSASLGDRVTISCRASQDISNYLNWYQQKPDGTVKLLIYYTSRLHSGVPSRFSGSGSGTDYSLTISNLEQEDVATYFCQQGNTLPWTFGGGTKLEIK
3 | 11.3 nM | 0.000602 s⁻¹ | 53000 M⁻¹ s⁻¹ | Clone 1A6 (antibody, V domains shown, Chimeric IgG: mouse variable regions on human heavy and light chain constant regions (section 6)) VH: QVQLQQSGTELVKPGASVKMSCKASVNTFTGYNMHWIKQTPGQGLEWIGGLHPGNGDSSYNQKFKGRATLTADKSSNTAYMQLSSLTSEDSAVYYCALTTAGRAWFPYWGQGTLVTVSA VL: DIQMTQTTSSLSASLGDRVTISCRASQDISNYLNWYQQKPDGTVKLLIYYTSRLHSGVPSRFSGSGSGTDYSLTISNLEQEDIATYFCQQGNTLPPTFGGGTKLEIK
4 | < 0.001 nM | < 1e-07 s⁻¹ | 37900 M⁻¹ s⁻¹ | Clone 25G9 (antibody, V domains shown, Chimeric IgG: mouse variable regions on human heavy and light chain constant regions (section 6)) VH: EVQLKESGAELVKPGASVKMSCKASVNIFTGYNMHWVKQTPGQGLEWIGGLHPGNGDTSYNQKFKDKATLTADRSSNTAYMQLSSLTSEDSAVYYCALTTAGRAWFAYWGQGTLVTVSA VL: DIQMTQSTSSLSASLGDRVTISCRASQDISNYLNWYQQKPDGTVKLLIYYTSRLHSGVPSRFSGSGSGTDYSLTISNLEQEDIATYFCQQGNTLPWTFGGGTRLEIK
5 | < 0.001 nM | < 1e-07 s⁻¹ | 29000 M⁻¹ s⁻¹ | Clone 34A2 (antibody, V domains shown, Chimeric IgG: mouse variable regions on human heavy and light chain constant regions (section 6)) VH: EVQLQQSGAELVKPGASVKMSCKASVNIFTSYNMHWVKQTPGQGLEWIGGLHPGNGDTSYNQNFKGKATLTADKSSSTAYMQVSNLTSEDSAVYYCVLTTAGRAWFAYWGQGTLVTVSA VL: DIQMTQSTSSLSASLGDRVTISCRASQDISNYLNWYQQKPDGTVKLLIYYTSRLHSGVPSRFSGSGSGTDYSLTISNLEQEDIATYFCQQGNTLPWTFGGGTKLEIK
6 | 1.9 nM | 6.28e-05 s⁻¹ | 33000 M⁻¹ s⁻¹ | Clone 31B9 (antibody, V domains shown, Chimeric IgG: mouse variable regions on human heavy and light chain constant regions (section 6)) VH: EVQLQQSGAELVKPGASVKMSCKASVNIFTGYNMHWVKQTPGQGLEWIGGLHPGNGDTSYNQKFKDKATLTADRSSNTAYMQLSSLTSEDSAVYYCALTTAGRAWFAYWGQGTLVTVSA VL: DIQMTQSTSSLSASLGDRVTISCRASQDISNYLNWYQQKPDGTVKLLIYYTSRLHSGVPSRFSGSGSGTDYSLTISNLEQEDIATYFCQQGNTLPWTFGGGTKLEIK
7 | 5.27 nM | 0.000377 s⁻¹ | 71600 M⁻¹ s⁻¹ | Clone 2H1 (antibody, V domains shown, Chimeric IgG: mouse variable regions on human heavy and light chain constant regions (section 6)) VH: QVQLQQSGTELVKPGASVKMSCKASVNTFTGYNMHWIKQTPGQGLEWIGGLHPGNGDSSYNQKFKGRATLTADKSSNTAYMQLSSLTSEDSAVYYCALTTAGRAWFPYWGQGTLVTVSA VL: DIQMIQSTSSLSASLGDRVTISCRASQDISNYLNWYQQKPDGTVKLLIYYTSRLHSGVPSRFRGSGSGTDYSLTISNLEQEDIATYFCQQGNTLPLTFGAGTKLELK
8 | 8.9 nM | 0.000262 s⁻¹ | 29300 M⁻¹ s⁻¹ | Clone 1H9 (antibody, V domains shown, Chimeric IgG: mouse variable regions on human heavy and light chain constant regions (section 6)) VH: QVQLQQSGAELVKPGASVKMSCKASVNTFAGYNMHWVKQTPGQGLEWIGGLHPGNGDTSYNQKFKGKATLTADKSSNTAYMQLSSLTSEDSAVYYCALTTAGRAWFAYWGQGTLVTVSA VL: DIQMIQSTSSLSASLGDRVTISCRASQDISNYLNWYQQKPDGTVKLLIYYTSRLHSGVPSRFSGSGSGTDYSLTISNLEQEDIATYFCQQGNTLPWTFGGGTKLEIK
